Patent US20260250320A1, “LIPIDATED PEPTIDE INHIBITORS OF INTERLEUKIN-23 RECEPTOR” (Janssen Pharmaceutica NV, priority 2023, published 2026)
*1 amine or outer side, *2 acyl side, *3 side chain or, on linkers, in order; H or OH if unused. Bridges are numbered along the chain shown (N, C = ends). Primed or numbered codes have the meaning given here. Where no end group is shown, it is not given here. Side-chain parts run from the residue outwards. [ ]: non-standard residue; d: D form. K(d) = (2R)-2-(4-((5-amino-5-carboxypentyl)amino)-4-oxobutanamido)-3-carboxy-N,N,N-trimethylpropan-1-aminium, C[N+](C)(C)C[C@@H](CC(=O)[*:3])NC(=O)CCC(=O)NCCCC[C@H](N[*:1])C(=O)[*:2]; TMAPF = 5-(4-(2-amino-2-carboxyethyl)phenoxy)-N,N,N-trimethylpentan-1-aminium, C[N+](C)(C)CCCCCOc1ccc(C[C@H](N[*:1])C(=O)[*:2])cc1; PEG2′ = PEG2 spacer unit (not further defined); Trp(7-Me) = Cc1cccc2c(C[C@H](N)C(=O)O)c[nH]c12; γGlu = O=C(O)[C@H](CCC(=O)[*:2])N[*:1]; 2Nal = N[C@@H](Cc1ccc2ccccc2c1)C(=O)O; AEF = NCCOc1ccc(C[C@H](N)C(=O)O)cc1; 3Pal = N[C@@H](Cc1cccnc1)C(=O)O; NMecPEG3a = not defined here; Pen = CC(C)(S)[C@H](N)C(=O)O; PEG2(3) = not defined here; 5cpaCO = not defined here; PEG12′ = not defined here; PEG2″ = PEG2 spacer unit; Thp = NC1(C(=O)O)CCOCC1; Sar = CNCC(=O)O

T1: interleukin-23 receptor (IL-23R) (UniProt Q5VWK5 24-629, limits assumed)
T1 sequence (looked up): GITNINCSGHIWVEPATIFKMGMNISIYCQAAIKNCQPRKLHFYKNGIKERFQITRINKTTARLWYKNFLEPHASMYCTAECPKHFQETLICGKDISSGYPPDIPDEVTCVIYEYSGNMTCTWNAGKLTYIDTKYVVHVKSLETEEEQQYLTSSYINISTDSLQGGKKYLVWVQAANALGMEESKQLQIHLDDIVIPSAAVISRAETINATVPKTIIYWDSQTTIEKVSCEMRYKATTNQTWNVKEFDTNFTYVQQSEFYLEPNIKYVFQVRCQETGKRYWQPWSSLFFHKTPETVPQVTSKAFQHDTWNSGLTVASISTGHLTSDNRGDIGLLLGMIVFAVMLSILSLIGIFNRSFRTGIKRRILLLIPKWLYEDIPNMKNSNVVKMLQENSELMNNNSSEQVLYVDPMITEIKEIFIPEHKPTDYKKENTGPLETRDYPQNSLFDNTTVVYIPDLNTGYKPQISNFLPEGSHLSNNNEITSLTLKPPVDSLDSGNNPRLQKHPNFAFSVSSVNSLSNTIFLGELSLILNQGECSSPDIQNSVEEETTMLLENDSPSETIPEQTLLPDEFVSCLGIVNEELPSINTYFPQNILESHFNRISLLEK


Columns and labels:
[1] = target: T1, interleukin-23 receptor (IL-23R); assay: cell-based or functional assay
[2] = target: T1, interleukin-23 receptor (IL-23R); assay: cell-based or functional assay; remark: listed apart in the source

| PBMC pSTAT3 IC50 [1] | IC50, IL23R reporter assay [2] | Binder |
| --- | --- | --- |
| < 0.5 nM |  | Ac-[Pen]NT[Trp(7-Me)]K(Ac)[Pen][TMAPF][2Nal][Thp]K([PEG2′-PEG2′-γGlu-C18OH])N[3Pal][Sar]-NH2 (disulfide 1-6 (inferred)) [SEQ ID NO: 85] |
|  | ≥ 0.5 µM | Ac-[dR][Pen]K([PEG2″-PEG2″-γGlu-C18OH])T[Trp(7-Me)]K(Ac)[Pen][AEF][2Nal][Thp]EN[3Pal][Sar] (disulfide 2-7 (inferred); not fully specified (C-terminus); printed as MeCO-r-Pen(3)-K(PEG2PEG2gEC18OH)-T-7MeW-K(Ac)-Pen(3)-AEF-2Nal-THP-E-N-3Pya-Sar-CONH(PEG3a)) [SEQ ID NO: 66] |
|  | < 0.05 µM | XNTXXXXXXENXXK (MeCO-Pen(3)-N-T-7MeW-K(Ac)-Pen(3)-AEF-2Nal-THP-E-N-3Pya-Sar-K(Sar-S-Sar-S-Sar-S-Sar-C14)-CONH2) [SEQ ID NO: 1] |
| < 0.5 nM | < 0.05 µM | XNTXKXXXXENXX (MeCO-Pen(3)-N-T-7MeW-K(PEG12gEC18OH)-Pen(3)-AEF-2Nal-THP-E-N-3Pya-Sar-CONH2) [SEQ ID NO: 96] |
| < 0.5 nM |  | XNTXKXXXXKNXX (MeCO-Pen(3)-N-T-7MeW-K(NMecPEG3a)-Pen(3)-AEF-2Nal-THP-K(PEG2PEG2gEC18OH)-N-3Pya-Sar-CONH2) [SEQ ID NO: 86] |
| < 0.5 nM | < 0.05 µM | Ac-[dR][Pen]K([PEG2″-PEG2″-γGlu-C18OH])T[Trp(7-Me)]K(NMecPEG3a)[Pen][AEF][2Nal][Thp]EN[3Pal][Sar]-NH2 (disulfide 2-7 (inferred); reading uncertain; also: printed as MeCO-r-Pen(3)-K(PEG2PEG2gEC18OH)-T-7MeW-K(NMecPEG3a)-Pen(3)-AEF-2Nal-THP-E-N-3Pya-Sar-CONH2) [SEQ ID NO: 76] |
| < 0.5 nM | < 0.05 µM | Ac-[dR][Pen]K([PEG2″-PEG2″-γGlu-C18OH])T[Trp(7-Me)]K(Ac)[Pen][AEF][2Nal][Thp]K(NMecPEG3a)N[3Pal][Sar]-NH2 (disulfide 2-7 (inferred); reading uncertain; also: printed as MeCO-r-Pen(3)-K(PEG2PEG2gEC18OH)-T-7MeW-K(Ac)-Pen(3)-AEF-2Nal-THP-K(NMecPEG3a)-N-3Pya-Sar-CONH2) [SEQ ID NO: 74] |
| < 0.5 nM | < 0.05 µM | {HOC18-γGlu-PEG2′-PEG2′}-[dR][Pen]NT[Trp(7-Me)]K(NMecPEG3a)[Pen][AEF][2Nal][Thp]EN[3Pal][Sar]-NH2 (disulfide 2-7 (inferred); not fully specified; printed as HOC18gEPEG2PEG2CO-r-Pen(3)-N-T-7MeW-K(NMecPEG3a)-Pen(3)-AEF-2Nal-THP-E-N-3Pya-Sar-CONH2; reading uncertain) [SEQ ID NO: 84] |
| < 0.5 nM | < 0.05 µM | {HOC18-γGlu-PEG2″-PEG2″}-[dR][Pen]NT[Trp(7-Me)]K(Ac)[Pen][TMAPF][2Nal][Thp]EN[3Pal][Sar]-NH2 (disulfide 2-7 (inferred); not fully specified) [SEQ ID NO: 83] |
| < 0.5 nM |  | 5cpaCO-[dR][Pen]NT[Trp(7-Me)]K(Ac)[Pen][AEF][2Nal][Thp]EN[3Pal][Sar]K([PEG2′-PEG2′-γGlu-C18OH])-NH2 (disulfide 2-7 (inferred); reading uncertain; also: printed as 5cpaCO-r-Pen(3)-N-T-7MeW-K(Ac)-Pen(3)-AEF-2Nal-THP-E-N-3Pya-Sar-K(PEG2PEG2gEC18OH)-CONH2) [SEQ ID NO: 81] |
| < 0.5 nM | < 0.05 µM | Ac-[dR][Pen]NT[Trp(7-Me)]K(Ac)[Pen][AEF]([PEG2′-PEG2′-γGlu-C18OH])[2Nal][Thp][K(d)]N[3Pal][Sar]-NH2 (disulfide 2-7 (inferred)) [SEQ ID NO: 9] |
|  | ≥ 0.5 µM | Ac-[dR][Pen]NT[Trp(7-Me)]K([PEG2″-PEG2″-γGlu-C18OH])[Pen][AEF][2Nal][Thp]EN[3Pal][Sar] (disulfide 2-7 (inferred); not fully specified (C-terminus); printed as MeCO-r-Pen(3)-N-T-7MeW-K(PEG2PEG2gEC18OH)-Pen(3)-AEF-2Nal-THP-E-N-3Pya-Sar-CONH(PEG3a)) [SEQ ID NO: 65] |
|  | < 0.05 µM | Ac-[dR][Pen]K([PEG2(3)-PEG2(3)-γGlu-C18OH])T[Trp(7-Me)]K(Ac)[Pen][AEF][2Nal][Thp][K(d)]N[3Pal][Sar]-NH2 (disulfide 2-7 (inferred)) [SEQ ID NO: 12] |
| < 0.5 nM | < 0.05 µM | Ac-[dR][Pen]K([PEG2″-PEG2″-γGlu-C18OH])T[Trp(7-Me)]K(Ac)[Pen][TMAPF][2Nal][Thp]EN[3Pal][Sar]-NH2 (disulfide 2-7 (inferred)) [SEQ ID NO: 75] |
|  | ≥ 0.5 µM | XNTXXXXXXENXX (not fully specified; MeCO-Pen(3)-N-T-7MeW-K(Ac)-Pen(3)-AEF-2Nal-THP-E-N-3Pya-Sar-CO(PEG2PEG2gEC18OH)) [SEQ ID NO: 147] |
|  | < 0.05 µM | Ac-[dR][Pen][K(d)]T[Trp(7-Me)]K(Ac)[Pen][AEF][2Nal][Thp]EN[3Pal][Sar]-NH2 (disulfide 2-7 (inferred); not fully specified (residue 8); printed as MeCO-r-Pen(3)-K(d)-T-7MeW-K(Ac)-Pen(3)-AEF(PEG2PEG2gEC18OH)-2Nal-THP-E-N-3Pya-Sar-CONH2) [SEQ ID NO: 10] |
| < 0.5 nM | < 0.05 µM | {HOC18-γGlu-PEG2″-PEG2″}-[dR][Pen]NT[Trp(7-Me)]K(Ac)[Pen][AEF][2Nal][Thp]K(NMecPEG3a)N[3Pal][Sar]-NH2 (disulfide 2-7 (inferred); not fully specified; printed as HOC18gEPEG2PEG2CO-r-Pen(3)-N-T-7MeW-K(Ac)-Pen(3)-AEF-2Nal-THP-K(NMecPEG3a)-N-3Pya-Sar-CONH2; reading uncertain) [SEQ ID NO: 82] |
|  | ≥ 0.5 µM | XNTXXXXXXKNXX (not fully specified; MeCO-Pen(3)-N-T-7MeW-K(Ac)-Pen(3)-AEF-2Nal-THP-K(PEG2PEG2gEC18OH)-N-3Pya-Sar-CONH(PEG3a)) [SEQ ID NO: 64] |
|  | < 0.05 µM | RXNTWXXXXXENXX (C12gEPEG2PEG2CO-r-Abu(1)-N-T-W-K(Ac)-aMeC(1)-AEF-2Nal-THP-E-N-3Pya-Sar-CONH2) [SEQ ID NO: 5] |
| < 0.5 nM |  | XNTXXXXXXKNXX (MeCO-Pen(3)-N-T-7MeW-K(Ac)-Pen(3)-AEF-2Nal-THP-K(PEG12gEC20OH)-N-3Pya-Sar-CONH2) [SEQ ID NO: 162] |
| < 0.5 nM |  | cPEG3aCO-[dR][Pen]NT[Trp(7-Me)]K(Ac)[Pen][AEF][2Nal][Thp]EN[3Pal][Sar]K([PEG2(3)-PEG2(3)-γGlu-C18OH])-NH2 (disulfide 2-7 (inferred)) [SEQ ID NO: 160] |
| < 0.5 nM |  | Ac-[dR][Pen]NT[Trp(7-Me)]K(Ac)[Pen][AEF][2Nal][Thp]K([PEG12′-γGlu-C18OH])N[3Pal][Sar]-NH2 (disulfide 2-7 (inferred)) [SEQ ID NO: 146] |
